In the assay the target is taxol-stabilized microtubules polymerized from bovine brain tubulin dimers (bovine) (UniProt Q6B856). The experiment in a line: co-sedimentation; 100 nM ISB (WT, MTBM or Δ20) with various concentrations of taxol-stabilized microtubules; BRB80, 1 mM DTT, 50 mM NaCl, 20 uM paclitaxel; 15 min at room temperature; 50% glycerol cushion, 279,000 x g; blot with anti-Borealin; apparent Kd from a one-site specific binding fit of three experiments.

In the case of “ISB^MTBM: INCENP^1-58-Survivin-Borealin(R17E, R19E, K20E) complex (from UniProt Q9NQS7 1-58; O15392 1-142; Q53HL2 1-280)”, the Kd came to 4.2 µM.

Values taken from paper PMC6368601.
